One series concerns the target HSF1 (Homo sapiens, UniProt Q00613 1-529). Description: EMSA; apparent Kd, n = 5; 1 nM RNA; EMSA: 1X binding buffer (composition not given), 1 µg yeast RNA, 4 µg BSA, 5 mM DTT, 10% glycerol, 6 U SUPERase-In in 10 µl; room temperature 30 min then 4 C 10 min; 6-9% native gel, 1/4 TBE, 1 mM MgCl2, 4 C; pH not stated. The conditions noted are these: protein: recombinant; tags: His; label: internal 32P-UTP; two aptamer units, 5' and 3' ends protected. On the technique in general: Mobility shift assays separate free from complexed probe on a gel.

A further series deals with HSF2 (Homo sapiens, UniProt Q03933 1-536). Kind of series: EMSA; apparent affinity from % shifted complex; 1 nM RNA; EMSA: 1X binding buffer (composition not given), 1 µg yeast RNA, 4 µg BSA, 5 mM DTT, 10% glycerol, 6 U SUPERase-In in 10 µl; room temperature 30 min then 4 C 10 min; 6-9% native gel, 1/4 TBE, 1 mM MgCl2, 4 C; pH not stated. To be noted: protein: recombinant; tags: His; label: internal 32P-UTP; two aptamer units, 5' and 3' ends protected.
Sequence of HSF2 (Q03933 whole entry): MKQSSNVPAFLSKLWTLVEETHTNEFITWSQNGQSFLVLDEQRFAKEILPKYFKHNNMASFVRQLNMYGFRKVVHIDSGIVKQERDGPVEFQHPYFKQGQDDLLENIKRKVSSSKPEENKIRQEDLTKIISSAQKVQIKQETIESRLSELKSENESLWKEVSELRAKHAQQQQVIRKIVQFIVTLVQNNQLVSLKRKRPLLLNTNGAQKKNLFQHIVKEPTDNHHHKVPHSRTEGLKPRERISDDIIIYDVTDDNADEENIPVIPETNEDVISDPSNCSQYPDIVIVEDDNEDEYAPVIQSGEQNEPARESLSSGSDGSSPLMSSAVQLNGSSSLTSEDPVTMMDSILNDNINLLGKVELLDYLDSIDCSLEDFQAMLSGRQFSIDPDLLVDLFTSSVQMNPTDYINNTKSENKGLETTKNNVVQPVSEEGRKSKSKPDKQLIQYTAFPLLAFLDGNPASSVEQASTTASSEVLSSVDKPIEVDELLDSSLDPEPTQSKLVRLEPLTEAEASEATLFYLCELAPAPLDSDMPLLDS

Sequence of HSF1 (Q00613 whole entry): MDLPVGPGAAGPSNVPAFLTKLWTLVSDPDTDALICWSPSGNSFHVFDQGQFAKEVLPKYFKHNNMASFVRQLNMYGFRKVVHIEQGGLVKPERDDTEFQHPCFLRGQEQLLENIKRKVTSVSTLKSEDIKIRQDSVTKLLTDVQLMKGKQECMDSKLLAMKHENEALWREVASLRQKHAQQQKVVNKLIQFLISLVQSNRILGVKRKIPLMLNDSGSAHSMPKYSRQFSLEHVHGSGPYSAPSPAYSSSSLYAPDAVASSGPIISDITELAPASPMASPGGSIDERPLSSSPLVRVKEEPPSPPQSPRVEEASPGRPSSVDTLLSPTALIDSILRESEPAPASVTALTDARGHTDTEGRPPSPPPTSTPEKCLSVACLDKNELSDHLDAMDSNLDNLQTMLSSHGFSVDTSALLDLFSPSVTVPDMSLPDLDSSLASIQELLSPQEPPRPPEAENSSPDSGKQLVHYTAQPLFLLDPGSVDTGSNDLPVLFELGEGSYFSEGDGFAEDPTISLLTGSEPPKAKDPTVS

B1: iaRNAHSF1 (structured_RNA)
RNA: GUCGAGUGACGUUGGCAUCGCGAUACAAAAUUAAGUUGAACGCGAGUUCUUCGGAAUUCAACUGCCUUCGUCAUACUCCUUGAAUUCAACUGCCUUCGGGCAUCGCGAUACAAAAUUAAGUUGAACGCGAGUUCUUGGAGGCUCGACGUCUAGCGAUGUGGUUUCGCUACUGAUGAGUCCGUGAGGACGAAAC
Turning to B1, the results for the Kd in the series with HSF1 and with HSF2 were approximately 25 nM and approximately 141 nM, respectively.

For the origin of these results see paper PMC4011729, “Inhibiting Heat Shock Factor 1 in Human Cancer Cells with a Potent RNA Aptamer”.
